# Data: US20100221240A1, “Chemically Modified Peptide Analogs” (FRAUNHOFER-GESELLSCHAFT ZUR FORDERUNG DER ANGEWANDTEN …, priority 2004, published 2010)
# Assays:
# [1] = Sedimentation test (solubility; BCA protein determination of pellet and supernatant); assay type: physicochemical; conditions: pH 7.4
# Experimental: a) The sedimentation test was used to investigate the solubility of the analogs compared to IAPP. The quantity of precipitated or soluble peptide was determined as a function of time. In one typical experiment, first a peptide solution at a given concentration (1, 10, or 100 μM) in 10 mM sodium phosphate buffer, pH 7.4 was prepared. Aliquots of this solution were centrifuged at specified times (20200 g, 20 min), and precipitated protein in the pellet and supernatant was quantified using the bicinchonic acid (BCA) protein determination assay. FIG. 1 illustrates several results from this test. […] After 20 h IAPP was completely precipitated; in contrast, the N-methylated IAPP-LA [sic; IAPP-AL], IAPP-GI, and IAPP-AF [sic; IAPP-FA] analogs remained soluble over 14 days, even at a concentration of 100 μM. IAPP completely precipitated after only 2 h under the latter-referenced conditions (100 μM).
# [2] = ThT binding assay of the fibrile formation potential of the peptides alone; assay type: physicochemical; conditions: 2% HFIP, 10 mM tris, pH 7.4
# Experimental: b) Amyloid fibriles from various protein species bind to the dye ThT and result in an increase in the maximum fluorescence emission of the […]. The ThT binding is therefore a specific test widely used for quantifying amyloid fibriles. This test was used to determine the amyloid formation potential of the analogs compared to IAPP. For this test the analogs and IAPP were incubated at a concentration of 62.5 μm [sic; μM] (2% HFIP, 10 mM tris, pH 7.4). […] aliquots from these incubations were combined with […] of a 5 μM ThT solution (in 0.1 M glycine-NaOH buffer, pH 8.5), mixed, and after excitation at 450 nm the emission from the solution was determined at 485 nm. It was shown that IAPP forms fibriles at a concentration of 625 nM.
# IAPP = biological target: T1, IAPP (Homo sapiens, UniProt P10997); experiment: EM-tracked aggregation test of IAPP in 1:1 mixture with analogs; assay type: biochemical; conditions: IAPP 5 μM alone or 1:1 with analog, 10 mM sodium phosphate pH 7.4, 1% HFIP, 20 h
# T1 construct: Natural human IAPP
# T1 sequence (P10997 34-70 limits assumed): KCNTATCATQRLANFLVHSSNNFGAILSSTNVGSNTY
# Experimental: In one typical aggregation test tracked by EM, IAPP (5 μM) was incubated alone or in the presence of one of the analogs, in a 1:1 ratio (in 10 mM sodium phosphate buffer, pH 7.4, containing 1% HFIP). After 20 h, 10 μL of the solution was applied to an EM plate, and after dyeing with 1% uranyl acetate as described in Kayed, J. Mol. Biol. (1999) 287, 781-796 was analyzed for the presence of fibriles by means of EM.
# [3] = biological target: T2, IAPP receptor on MCF-7 cells (Homo sapiens, UniProt P30988); experiment: Stability in solution: preservation of AC activation potential (hormonal activity) on storage; assay type: cell-based; conditions: 250 μM or 1 mg/mL, sodium phosphate pH 7.4, RT, 4 days; 1 μM end concentration on cells
# T2 construct: Specific IAPP receptors are expressed in the MCF-7 cell line; endogenous in cells; host or cells: MCF-7 (human breast cancer cells)
# T2 sequence (P30988 25-474): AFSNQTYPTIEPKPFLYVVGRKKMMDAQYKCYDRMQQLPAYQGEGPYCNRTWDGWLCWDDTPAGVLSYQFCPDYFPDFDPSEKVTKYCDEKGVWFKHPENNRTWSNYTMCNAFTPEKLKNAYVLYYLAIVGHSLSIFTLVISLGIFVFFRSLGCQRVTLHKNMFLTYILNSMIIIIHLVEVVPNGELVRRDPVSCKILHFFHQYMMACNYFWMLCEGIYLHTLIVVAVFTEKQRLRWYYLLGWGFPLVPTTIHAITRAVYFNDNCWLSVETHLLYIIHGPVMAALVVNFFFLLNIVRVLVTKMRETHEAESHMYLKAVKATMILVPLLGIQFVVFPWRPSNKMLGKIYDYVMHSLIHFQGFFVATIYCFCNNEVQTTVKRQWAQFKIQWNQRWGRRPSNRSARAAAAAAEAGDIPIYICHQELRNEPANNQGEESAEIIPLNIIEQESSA
# Experimental: To [determine] the potential applicability of the analogs as an IAPP or pramlintide replacement in the treatment of diabetes and/or other diseases, the stability of the solutions of the analogs and thus their hormonal activity in comparison to readily aggregating IAPP was investigated. In one typical assay, aqueous solutions of IAPP, IAPP-AL, IAPP-GI, or 1:1 mixtures of the analogs with IAPP (250 μM or 1 mg/mL) in […] sodium phosphate, pH 7.4, were used at RT and incubated for 4 days. The AC activation potential of these solutions was determined at various times, e.g., at times 0, 48 h, and 96 h, by means of the AC activation assay described above (end concentration in the cells was 1 μM, corresponding to maximum activation) (FIG. 9).
# [4] = EM analysis of peptide solutions for fibriles; assay type: physicochemical; conditions: 5 μM, 10 mM sodium phosphate buffer pH 7.4, 1% HFIP, approximately 20 h at RT
# Experimental: c) For EM analyses, 5-μM solutions of the analogs versus IAPP (in 10 mM sodium phosphate buffer, pH 7.4, containing 1% HFIP) were incubated for approximately 20 h at RT. 10 μL of the solutions was then applied to EM plates, and after dyeing with 1% uranyl acetate as described in Kayed, J. Mol. Biol. (1999) 287, 781-796 was analyzed for the presence of fibriles by means of EM.
# [5] = Nyholm B. et al. 2001; cited from earlier work
# [6] = 10 μM in 10 mM sodium phosphate buffer
Compound,"onset of aggregation [1, 6]","time after which peptide was completely precipitated [1, 6]",time after which peptide was completely precipitated ([1]; 100 μM in 10 mM sodium phosphate buffer),concentration at which fibriles form [2],fibrile formation by EM (IAPP),hormonal activity (AC activation potential) after storage in solution [3],presence of fibriles by EM [4],pH values at which the peptide tends to aggregate [5]
Natural human IAPP (KCNTATCATQRLANFLVHSSNNFGAILSSTNVGSNTY; listed as Homo sapiens) [peptide hormone of 37 amino acids],began immediately after the solution was prepared,20 h,2 h,625 nM,composed primarily of IAPP amyloid fibriles,may lose more than half of its original hormonal activity,composed primarily of IAPP amyloid fibriles,–
CC[C@H](C)[C@H](NC(=O)[C@@H]1CCCN1C(=O)CNC(=O)[C@H](Cc1ccccc1)NC(=O)[C@H](CC(N)=O)NC(=O)[C@H](CC(N)=O)NC(=O)[C@H](CO)NC(=O)[C@H](CO)NC(=O)[C@H](Cc1c[nH]cn1)NC(=O)[C@@H](NC(=O)[C@H](CC(C)C)NC(=O)[C@H](Cc1ccccc1)NC(=O)[C@H](CC(N)=O)NC(=O)[C@H](C)NC(=O)[C@H](CC(C)C)NC(=O)[C@H](CCCNC(=N)N)NC(=O)[C@H](CCC(N)=O)NC(=O)[C@@H](NC(=O)[C@H](C)NC(=O)[C@@H]1CSSC[C@H](NC(=O)[C@@H](N)CCCCN)C(=O)N[C@@H](CC(N)=O)C(=O)N[C@@H]([C@@H](C)O)C(=O)N[C@@H](C)C(=O)N[C@@H]([C@@H](C)O)C(=O)N1)[C@@H](C)O)C(C)C)C(=O)N[C@@H](CC(C)C)C(=O)N1CCC[C@H]1C(=O)N1CCC[C@H]1C(=O)N[C@H](C(=O)N[C@@H](CC(N)=O)C(=O)N[C@H](C(=O)NCC(=O)N[C@@H](CO)C(=O)N[C@@H](CC(N)=O)C(=O)N[C@H](C(=O)N[C@@H](Cc1ccc(O)cc1)C(N)=O)[C@@H](C)O)C(C)C)[C@@H](C)O [pramlintide],–,–,–,–,–,–,–,above 5
